PMC4106346, “The Oligomeric States of the Purified Sigma-1 Receptor Are Stabilized by Ligands” (The Journal of Biological Chemistry, 2014)

Target: GpA G83I
Assay: TOXCAT
Conditions: parent: est. 100; read off a plot

glycophorin A transmembrane control of the TOXCAT assay G83I
response: 6.3 %GpA
